# Laboratory results published in IntAct's records for PubMed 31515488.
# B1: Bcl-2-interacting killer (Homo sapiens), Q13323 (parent)
# chain: MSEVRPLSRDILMETLLYEQLLEPPTMEVLGMTDSEEDLDPMEDFDSLECMEGSDALALRLACIGDEMDVSLRAPRLAQLSEVAMHSLGLAFIYDQTEDIRDVLRSFMDGFTTLKENIMRFWRSPNPGSWVSCEQVLLALLLLLALLLPLLSGGLHLLLK
# B2: Myomegalin (Homo sapiens), Q5VU43-2 (parent)
# chain: MKEICRICARELCGNQRRWIFHTASKLNLQVLLSHVLGKDVPRDGKAEFACSKCAFMLDRIYRFDTVIARIEALSIERLQKLLLEKDRLKFCIASMYRKNNDDSGAEIKAGNGTVDMSVLPDARYSALLQEDFAYSGFECWVENEDQIQEPHSCHGSEGPGNRPRRCRGCAALRVADSDYEAICKVPRKVARSISCGPSSRWSTSICTEEPALSEVGPPDLASTKVPPDGESMEEETPGSSVESLDASVQASPPQQKDEETERSAKELGKCDCCSDDQAPQHGCNHKLELALSMIKGLDYKPIQSPRGSRLPIPVKSSLPGAKPGPSMTDGVSSGFLNRSLKPLYKTPVSYPLELSDLQELWDDLCEDYLPLRVQPMTEELLKQQKLNSHETTITQQSVSDSHLAELQEKIQQTEATNKILQEKLNEMSYELKCAQESSQKQDGTIQNLKETLKSRERETEELYQVIEGQNDTMAKLREMLHQSQLGQLHSSEGTSPAQQQVALLDLQSALFCSQLEIQKLQRVVRQKERQLADAKQCVQFVEAAAHESEQQKEASWKHNQELRKALQQLQEELQNKSQQLRAWEAEKYNEIRTQEQNIQHLNHSLSHKEQLLQEFRELLQYRDNSDKTLEANEMLLEKLRQRIHDKAVALERAIDEKFSALEEKEKELRQLRLAVRERDHDLERLRDVLSSNEATMQSMESLLRAKGLEVEQLSTTCQNLQWLKEEMETKFSRWQKEQESIIQQLQTSLHDRNKEVEDLSATLLCKLGPGQSEIAEELCQRLQRKERMLQDLLSDRNKQVLEHEMEIQGLLQSVSTREQESQAAAEKLVQALMERNSELQALRQYLGGRDSLMSQAPISNQQAEVTPTGRLGKQTDQGSMQIPSRDDSTSLTAKEDVSIPRSTLGDLDTVAGLEKELSNAKEELELMAKKERESQMELSALQSMMAVQEEELQVQAADMESLTRNIQIKEDLIKDLQMQLVDPEDIPAMERLTQEVLLLREKVASVESQGQEISGNRRQQLLLMLEGLVDERSRLNEALQAERQLYSSLVKFHAHPESSERDRTLQVELEGAQVLRSRLEEVLGRSLERLNRLETLAAIGGAAAGDDTEDTSTEFTDSIEEEAAHHSHQQL
# partner: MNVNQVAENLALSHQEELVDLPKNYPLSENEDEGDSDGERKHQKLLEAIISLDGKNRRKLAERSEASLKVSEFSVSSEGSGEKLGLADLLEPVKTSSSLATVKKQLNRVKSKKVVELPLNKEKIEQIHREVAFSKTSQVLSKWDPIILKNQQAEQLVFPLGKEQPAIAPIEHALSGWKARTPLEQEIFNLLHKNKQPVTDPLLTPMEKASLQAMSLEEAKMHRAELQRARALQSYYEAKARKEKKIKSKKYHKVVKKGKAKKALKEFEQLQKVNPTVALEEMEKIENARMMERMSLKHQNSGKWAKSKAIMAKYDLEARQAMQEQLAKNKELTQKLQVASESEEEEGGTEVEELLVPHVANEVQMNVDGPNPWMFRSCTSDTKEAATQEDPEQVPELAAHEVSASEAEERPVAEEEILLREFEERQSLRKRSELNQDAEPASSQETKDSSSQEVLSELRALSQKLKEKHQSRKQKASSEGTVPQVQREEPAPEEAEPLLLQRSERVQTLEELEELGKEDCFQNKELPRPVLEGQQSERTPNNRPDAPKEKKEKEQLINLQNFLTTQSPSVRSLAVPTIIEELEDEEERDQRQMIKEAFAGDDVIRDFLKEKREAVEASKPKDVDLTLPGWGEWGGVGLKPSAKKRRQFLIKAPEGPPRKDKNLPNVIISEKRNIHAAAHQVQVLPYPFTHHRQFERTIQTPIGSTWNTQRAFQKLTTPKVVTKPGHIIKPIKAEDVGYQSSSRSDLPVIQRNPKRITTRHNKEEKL
# B3: Microtubule-associated protein RP/EB family member 1 (Homo sapiens), Q15691 (parent)
# chain: MAVNVYSTSVTSDNLSRHDMLAWINESLQLNLTKIEQLCSGAAYCQFMDMLFPGSIALKKVKFQAKLEHEYIQNFKILQAGFKRMGVDKIIPVDKLVKGKFQDNFEFVQWFKKFFDANYDGKDYDPVAARQGQETAVAPSLVAPALNKPKKPLTSSSAAPQRPISTQRTAAAPKAGPGVVRKNPGVGNGDDEAAELMQQVNVLKLTVEDLEKERDFYFGKLRNIELICQENEGENDPVLQRIVDILYATDEGFVIPDEGGPQEEQEEY
# B4: Adenosylhomocysteinase (Homo sapiens), P23526 (parent)
# chain: MSDKLPYKVADIGLAAWGRKALDIAENEMPGLMRMRERYSASKPLKGARIAGCLHMTVETAVLIETLVTLGAEVQWSSCNIFSTQDHAAAAIAKAGIPVYAWKGETDEEYLWCIEQTLYFKDGPLNMILDDGGDLTNLIHTKYPQLLPGIRGISEETTTGVHNLYKMMANGILKVPAINVNDSVTKSKFDNLYGCRESLIDGIKRATDVMIAGKVAVVAGYGDVGKGCAQALRGFGARVIITEIDPINALQAAMEGYEVTTMDEACQEGNIFVTTTGCIDIILGRHFEQMKDDAIVCNIGHFDVEIDVKWLNENAVEKVNIKPQVDRYRLKNGRRIILLAEGRLVNLGCAMGHPSFVMSNSFTNQVMAQIELWTHPDKYPVGVHFLPKKLDEAVAEAHLGKLNVKLTKLTEKQAQYLGMSCDGPFKPDHYRY
# partner: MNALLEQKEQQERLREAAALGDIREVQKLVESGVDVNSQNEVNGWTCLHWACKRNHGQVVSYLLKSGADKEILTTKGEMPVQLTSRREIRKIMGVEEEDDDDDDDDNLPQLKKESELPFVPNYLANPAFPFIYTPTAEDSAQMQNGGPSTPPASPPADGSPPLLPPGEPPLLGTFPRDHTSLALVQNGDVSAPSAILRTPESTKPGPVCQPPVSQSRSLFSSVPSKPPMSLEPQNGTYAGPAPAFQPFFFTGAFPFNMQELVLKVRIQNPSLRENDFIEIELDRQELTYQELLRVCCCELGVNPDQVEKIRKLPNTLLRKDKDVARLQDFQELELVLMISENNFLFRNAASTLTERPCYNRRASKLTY
# B5: Four and a half LIM domains protein 2 (Homo sapiens), Q14192 (parent)
# chain: MTERFDCHHCNESLFGKKYILREESPYCVVCFETLFANTCEECGKPIGCDCKDLSYKDRHWHEACFHCSQCRNSLVDKPFAAKEDQLLCTDCYSNEYSSKCQECKKTIMPGTRKMEYKGSSWHETCFICHRCQQPIGTKSFIPKDNQNFCVPCYEKQHAMQCVQCKKPITTGGVTYREQPWHKECFVCTACRKQLSGQRFTARDDFAYCLNCFCDLYAKKCAGCTNPISGLGGTKYISFEERQWHNDCFNCKKCSLSLVGRGFLTERDDILCPDCGKDI
# partner: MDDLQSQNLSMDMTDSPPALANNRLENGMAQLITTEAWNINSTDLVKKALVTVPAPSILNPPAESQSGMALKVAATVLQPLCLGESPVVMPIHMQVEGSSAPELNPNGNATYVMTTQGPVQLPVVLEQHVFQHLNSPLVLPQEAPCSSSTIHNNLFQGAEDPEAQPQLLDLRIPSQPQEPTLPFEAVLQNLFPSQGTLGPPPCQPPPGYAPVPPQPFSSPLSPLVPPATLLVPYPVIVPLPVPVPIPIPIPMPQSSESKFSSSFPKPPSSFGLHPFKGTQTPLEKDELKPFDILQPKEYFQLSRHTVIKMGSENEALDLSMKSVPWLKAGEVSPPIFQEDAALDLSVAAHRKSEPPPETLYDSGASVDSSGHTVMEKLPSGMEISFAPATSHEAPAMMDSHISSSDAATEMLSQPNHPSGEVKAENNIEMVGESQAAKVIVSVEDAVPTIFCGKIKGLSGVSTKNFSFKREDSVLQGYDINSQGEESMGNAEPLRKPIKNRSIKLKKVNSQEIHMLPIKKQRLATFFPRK
# B6: 1-phosphatidylinositol 4,5-bisphosphate phosphodiesterase delta-4 (Homo sapiens), Q9BRC7 (parent)
# chain: MASLLQDQLTTDQDLLLMQEGMPMRKVRSKSWKKLRYFRLQNDGMTVWHARQARGSAKPSFSISDVETIRNGHDSELLRSLAEELPLEQGFTIVFHGRRSNLDLMANSVEEAQIWMRGLQLLVDLVTSMDHQERLDQWLSDWFQRGDKNQDGKMSFQEVQRLLHLMNVEMDQEYAFSLFQAADTSQSGTLEGEEFVQFYKALTKRAEVQELFESFSADGQKLTLLEFLDFLQEEQKERDCTSELALELIDRYEPSDSGKLRHVLSMDGFLSYLCSKDGDIFNPACLPIYQDMTQPLNHYFICSSHNTYLVGDQLCGQSSVEGYIRALKRGCRCVEVDVWDGPSGEPVVYHGHTLTSRILFKDVVATVAQYAFQTSDYPVILSLETHCSWEQQQTMARHLTEILGEQLLSTTLDGVLPTQLPSPEELRRKILVKGKKLTLEEDLEYEEEEAEPELEESELALESQFETEPEPQEQNLQNKDKKKKSKPILCPALSSLVIYLKSVSFRSFTHSKEHYHFYEISSFSETKAKRLIKEAGNEFVQHNTWQLSRVYPSGLRTDSSNYNPQELWNAGCQMVAMNMQTAGLEMDICDGHFRQNGGCGYVLKPDFLRDIQSSFHPEKPISPFKAQTLLIQVISGQQLPKVDKTKEGSIVDPLVKVQIFGVRLDTARQETNYVENNGFNPYWGQTLCFRVLVPELAMLRFVVMDYDWKSRNDFIGQYTLPWTCMQQGYRHIHLLSKDGISLRPASIFVYICIQEGLEGDES
# partner: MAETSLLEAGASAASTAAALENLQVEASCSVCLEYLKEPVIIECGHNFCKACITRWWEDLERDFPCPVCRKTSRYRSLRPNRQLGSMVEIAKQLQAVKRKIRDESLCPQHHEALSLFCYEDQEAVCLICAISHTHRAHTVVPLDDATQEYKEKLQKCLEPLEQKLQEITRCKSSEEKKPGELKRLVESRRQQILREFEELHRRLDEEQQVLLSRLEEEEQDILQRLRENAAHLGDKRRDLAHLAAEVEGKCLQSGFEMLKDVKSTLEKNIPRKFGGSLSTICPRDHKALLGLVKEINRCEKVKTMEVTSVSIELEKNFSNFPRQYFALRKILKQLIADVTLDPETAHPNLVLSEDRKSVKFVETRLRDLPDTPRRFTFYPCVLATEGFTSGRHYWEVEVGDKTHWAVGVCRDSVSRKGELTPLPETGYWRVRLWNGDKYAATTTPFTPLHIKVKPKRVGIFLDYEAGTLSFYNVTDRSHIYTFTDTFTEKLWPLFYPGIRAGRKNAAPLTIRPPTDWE
# B7: Keratin, type II cytoskeletal 6A (Homo sapiens), P02538 (parent)
# chain: MASTSTTIRSHSSSRRGFSANSARLPGVSRSGFSSVSVSRSRGSGGLGGACGGAGFGSRSLYGLGGSKRISIGGGSCAISGGYGSRAGGSYGFGGAGSGFGFGGGAGIGFGLGGGAGLAGGFGGPGFPVCPPGGIQEVTVNQSLLTPLNLQIDPTIQRVRAEEREQIKTLNNKFASFIDKVRFLEQQNKVLETKWTLLQEQGTKTVRQNLEPLFEQYINNLRRQLDSIVGERGRLDSELRGMQDLVEDFKNKYEDEINKRTAAENEFVTLKKDVDAAYMNKVELQAKADTLTDEINFLRALYDAELSQMQTHISDTSVVLSMDNNRNLDLDSIIAEVKAQYEEIAQRSRAEAESWYQTKYEELQVTAGRHGDDLRNTKQEIAEINRMIQRLRSEIDHVKKQCANLQAAIADAEQRGEMALKDAKNKLEGLEDALQKAKQDLARLLKEYQELMNVKLALDVEIATYRKLLEGEECRLNGEGVGQVNISVVQSTVSSGYGGASGVGSGLGLGGGSSYSYGSGLGVGGGFSSSSGRAIGGGLSSVGGGSSTIKYTTTSSSSRKSYKH
# partner: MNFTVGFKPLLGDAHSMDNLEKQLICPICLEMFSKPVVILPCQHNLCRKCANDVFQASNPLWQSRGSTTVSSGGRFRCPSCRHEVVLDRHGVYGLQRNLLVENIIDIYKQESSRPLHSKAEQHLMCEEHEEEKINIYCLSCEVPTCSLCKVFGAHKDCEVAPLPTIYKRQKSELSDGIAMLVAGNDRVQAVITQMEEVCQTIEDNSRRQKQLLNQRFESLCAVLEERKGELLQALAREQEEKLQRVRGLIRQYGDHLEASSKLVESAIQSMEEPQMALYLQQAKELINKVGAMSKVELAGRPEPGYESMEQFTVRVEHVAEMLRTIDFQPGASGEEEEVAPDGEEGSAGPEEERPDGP
# Variants of: B1
# Details: with BCL2L1, Q07817
# Chain of BCL2L1, Q07817 (Q07817 whole entry): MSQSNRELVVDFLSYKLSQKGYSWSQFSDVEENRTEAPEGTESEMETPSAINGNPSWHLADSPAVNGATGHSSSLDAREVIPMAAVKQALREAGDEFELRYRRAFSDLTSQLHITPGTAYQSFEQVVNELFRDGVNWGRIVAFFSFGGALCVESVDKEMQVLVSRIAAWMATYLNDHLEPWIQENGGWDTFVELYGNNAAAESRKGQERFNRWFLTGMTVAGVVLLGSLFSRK
row,Variant,effect of a mutation on the interaction
1,D69E,with no effect

# Variants of: B2
# Details: with ut14c_human UTP14C
row,Variant,effect of a mutation on the interaction
1,N28S,with no effect

# Variants of: B3
# Details: with mare3_human MAPRE3, Q9UPY8
# Chain of mare3_human MAPRE3, Q9UPY8 (Q9UPY8 whole entry): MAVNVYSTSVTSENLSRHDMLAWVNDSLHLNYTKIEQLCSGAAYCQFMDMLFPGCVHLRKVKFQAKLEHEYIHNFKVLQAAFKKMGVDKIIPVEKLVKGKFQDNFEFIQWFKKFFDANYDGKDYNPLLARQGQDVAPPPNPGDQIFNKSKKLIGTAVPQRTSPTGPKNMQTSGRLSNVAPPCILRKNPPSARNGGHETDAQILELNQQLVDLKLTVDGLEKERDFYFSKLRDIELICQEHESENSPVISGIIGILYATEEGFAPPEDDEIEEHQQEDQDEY
row,Variant,effect of a mutation on the interaction
1,I56V,with no effect
2,N201S,with no effect

# Variants of: B4
# Details: with anr40_human ANKRD40, Q6AI12
row,Variant,effect of a mutation on the interaction
1,I92V,with no effect

# Variants of: B5
# Details: with rai2_human RAI2, Q9Y5P3
row,Variant,effect of a mutation on the interaction
1,N95K,with no effect
2,A37S,with no effect

# Variants of: B6
# Details: with tri39_human TRIM39, Q9HCM9
row,Variant,effect of a mutation on the interaction
1,N475K,with no effect

# Variants of: B7
# Details: with tri54_human TRIM54, Q9BYV2
row,Variant,effect of a mutation on the interaction
1,R415H,with no effect
2,T552S,with no effect
3,A335T,with no effect
